Test results from patent US11906524B2, “Urea biosensors and uses thereof” (Duke University, priority 2015, dated 2024).
Residue numbers refer to the chain shown, from its start. Names may count otherwise. Like-named read-outs stand apart in the source and are kept apart here.

B1: ctUBP6 T96C: ctUBP6 96C cysteine mutant (SEQ ID NO: 50), tested as Acrylodan and Badan conjugates (conjugate)
chain: MVEEPVDNKPGTDTSAEDTIKVGILHSLSGTMAISEVSLKDAELMAIEEINQAGGLLGKKIEPVIEDGASDWPTFAEKAKKLLQNDKVATVFGCWCSASRKAVLPVFEENNGLLWYPVQYEGMESSPNIFYTGAAPNQQIVPAVEWLLENKGKRFFLLGSDYVFPRTANKIIKAQLSAIGGELIAEEYTPLGHTDYSTIVNKIKTAKPDVVFNTLNGDSNVAFFKQLKDAGITSEDITVCSVSVAEEEIRGIGAENIKGHLVSWNYYQTTDTPENKEFVEKYKSKYGSDRVTDDPIEAAYIAVHLWAEAVKKAGSFEVEKVKEAAKGLEFKAPEGLVKIEGENQHLWKPVRIGEVQEDGLIKEIWSTSEAVRPDPYLKTYDWAKGLSDGGSHHHHHH
modifications: Acrylodan or Badan conjugate; ctUBP6_96C (96C substitution mutant with signal peptide replaced with M and a GGSHHHHHH at C-terminus)
B2: ctUBP6 S97C: ctUBP6 97C cysteine mutant (SEQ ID NO: 51), tested as Acrylodan and Badan conjugates (conjugate)
chain: B1 chain with C96T, S97C
modifications: Acrylodan or Badan conjugate; ctUBP6_97C (97C substitution mutant with signal peptide replaced with M and a GGSHHHHHH at C-terminus)
B3: ctUBP6 A98C: ctUBP6 98C cysteine mutant (SEQ ID NO: 52), tested as Acrylodan and Badan conjugates (conjugate)
chain: B1 chain with C96T, A98C
modifications: Acrylodan or Badan conjugate; ctUBP6_98C (98C substitution mutant with signal peptide replaced with M and a GGSHHHHHH at C-terminus)
B4: ctUBP6 F164C: ctUBP6 164C cysteine mutant (SEQ ID NO: 53), tested as Acrylodan and Badan conjugates (conjugate)
chain: B1 chain with C96T, F164C
modifications: Acrylodan or Badan conjugate; ctUBP6_164C (164C substitution mutant with signal peptide replaced with M and a GGSHHHHHH at C-terminus)
B5: ctUBP6 L191C: ctUBP6 191C cysteine mutant (SEQ ID NO: 54), tested as Acrylodan and Badan conjugates (conjugate)
chain: B1 chain with C96T, L191C
modifications: Acrylodan or Badan conjugate; ctUBP6_191C (191C substitution mutant with signal peptide replaced with M and a GGSHHHHHH at C-terminus)

What was measured:
Type in all cases: binding
[1] = Temperature- and urea-dependent fluorescence landscapes of fluorescent conjugates (Roche LightCycler); set-up: key: y, yes; n, no; conditions: Acrylodan conjugate; fluorescent response to urea
How it was run: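 Acrylodan or Badan was attached to single-cysteine csUBP7 mutants and fluorescence was recorded over 0–4.8 M urea in 20 mM KCl, 20 mM MOPS (pH 7.4), with temperature stepped by 1K. Urea Kd came from ratiometric single-site fits, and Kd values across temperatures were fit to the Gibbs-Helmholtz equation.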

[2] = Urea titration of emission intensity spectra (Nanodrop3300) with ratiometric analysis, singly labeled conjugates
Text: (§1) Determination of emission intensity spectra.
(§2) Ratiometric analysis of urea binding. […] 2
(§3) For a single urea-binding site, the fractional saturation is given by
(§4) [formula] where [L] is the ligand (urea) concentration and Kd the dissociation constant, ^trueKd for ytrue.
(§5) [formula] where ^appIλ2 and ^satIλ2 are the emission intensities of the monochromatic signal at wavelength λ2 of the ligand-free and ligand-bound protein, respectively.

[3] = as above; set-up: key: m, monochromatic; d, dichromatic (i.e. spectral shape change); conditions: urea response
Text: as §1, §2, §3, §4, §5

[4] = as above; set-up: key: m, monochromatic; d, dichromatic (i.e. spectral shape changes); 0, no change; conditions: urea response
Text: as §1, §2, §3, §4, §5

[5] = ctUBP6 Acrylodan conjugate, urea, nb = no binding, read-out: ^appKd
[6] = ctUBP6 Badan conjugate, urea, ^d = noisy data and or bad fit, read-out: ^appKd
[7] = ctUBP6 Badan conjugate, urea, ^d = noisy data and or bad fit, read-out: ^trueKd
[8] = ctUBP6 Acrylodan conjugate, urea, nb = no binding, read-out: ^trueKd
[9] = ctUBP6 Acrylodan conjugate, urea, nb = no binding

| Molecule | Response [1] | Kd [2, 5] [mM] | Kd [2, 6] [mM] | Kd [2, 7] [mM] | Shape ([3]; ctUBP6 Acrylodan conjugate) | Shape ([3]; ctUBP6 Badan conjugate) | Shape ([4]; ctUBP6 Acrylodan conjugate) | Kd [2, 8] [mM] | Shape ([2]; ctUBP6 Badan conjugate, urea response) | Shape ([4]; ctUBP6 Badan conjugate) | ^appKd [2, 9] | ^trueKd [2, 9] |
| --- | --- | --- | --- | --- | --- | --- | --- | --- | --- | --- | --- | --- |
| B1 | n | 0.52 | 0.62 | 0.5 | d | d |  |  |  |  |  |  |
| B2 | n | 79 | 69 | 95 |  |  | m | 84 | m/d |  |  |  |
| B3 | y |  |  |  |  |  | m |  |  | m | nb | nb |
| B4 | y | 23 | 9.4 | 11 | d | d |  | 22 |  |  |  |  |
| B5 | y | 0.15 | 0.31 | 0.34 |  |  | m | 0.11 |  | m |  |  |
